Measurements published in US7604970B2, “Variants of the PapM polypeptide of bacteria of the Streptomyces genus” (Aventis Pharma S.A., priority 2002, dated 2009).
Residue numbers refer to the chain shown, from its start. Read-outs that look alike come from different tables or passages of the source.

Key:
[1] = Enzymatic screening: simultaneous assay of the two methylation activities of PapM (ratio r); format: biochemical, S. pristinaespiralis; details: for Ratio (r redetermined): 7 sequenced clones, experiment in which wild-type ratio was 0.40
Source text: The ratio of the respective rates V1 and V2 of methylation of L-PAPA and of L-MMPAPA is dependent on the kinetic parameters of PapM (Km1 and Vmax1 for L-PAPA, Km2 and Vmax2 for L-MMPAPA), and is also dependent on the respective concentrations S1 and S2 of L-PAPA and of L-MMPAPA, according to the formula: V1/V2=(Vmax1//Km1)[S1]/(Vmax2/Km2)[S2]
Simultaneous measurement of the two rates of methylation V1 and V2 at fixed concentrations of S1 and S2 makes it possible to determine the ratio of the kinetic constants of PapM for L-PAPA and L-MMPAPA. This ratio is independent of the amount of PapM used in the assay. When the selectivity of the mutated PapM enzyme increases for L-PAPA, the ratio V1/V2 should increase and, conversely, this ratio should decrease when the mutated PapM enzyme preferentially methylates L-MMPAPA.
Finally, in order to avoid small variations in Km and to, on the contrary, promote either large variations in Km or modifications in the Vmax values, the concentrations of L-PAPA and L-MMPAPA are fixed at approximately 6 times the Km in order to be under conditions of saturation. Under such conditions, with the wild-type PapM enzyme, the rate of methylation 1 and the rate of methylation 2 are virtually equal.
The simultaneous assaying of the two methylation activities of PapM is described in example 7.1. This assaying of the methylase activities of PapM is carried out in the presence of 1.5 mM L-PAPA, 3 mM L-MMPAPA and […].
The 96-well plates of the library of E. coli clones producing the mutated PapM enzymes, prepared as described in example 3, are thawed at 23° C. Next, 25 μl of mixture A are added to the 200 μl of the culture on LB medium contained in each well. Mixture A is obtained by adding successively (1) 3 ml of 50 mM Bis-Tris-Propane buffer, pH 10, in which have been dissolved 12 mg of L-PAPA, and 71 mg of (DL)-MMPAPA in dihydrochloride form and prepared as described in WO 96/01901-A1, (2) 0.7 ml of 4 mM SAM in water, (3) 0.7 ml of [^14C-Me]-SAM at 25 μCi/ml and 60 mCi/mmol (AMERSHAM), (4) 0.6 ml of 100 mM Bis-Tris-Propane buffer, pH 6.8, and (5) 56 mg of the disodium salt of EDTA. The amounts are given for the preparation of a 5 ml volume of mixture A. The plate is then sealed with an adhesive film, and then incubated at 27° C. for 2 hours. The reaction is stopped with 40 μl of a stop solution. The stop solution (for a volume of 4 ml) is obtained by mixing 2.2 ml of a 24 mg/ml sodium heptanesulfonate solution in water with 1.8 ml of concentrated hydrochloric acid. After centrifugation of the plates at 3 000 g for 5 min, approximately 100 μl of the supernatant of each well are analyzed by HPLC in the system described in example 7.1.
For each well, the respective areas A1 and A2 of the MMPAPA and DMPAPA peaks derived from recording the radiochemical detection are integrated. A ratio r is then calculated in the following way: r=A1/(A1+A2) In the case of the wild-type PapM methylase, r=0.50±0.05.

[2] = Km and Vmax of purified PapM methylases, methylation 1; format: biochemical, S. pristinaespiralis; details: for Km1 / Vm1 / Vm1/Km1 (enzyme efficiency, methylation 1): Table 7; for Vm1 (PAPA) / Km1 (PAPA): purified enzyme, 2 mM SAM; for Km1 (PAPA): substrate 0.1 to 60 mM
Description: (§1) The enzyme fractions to be assayed (1 to 20 units) are incubated for 30 min at 27° C. in a total volume of 200 μl of 50 mM bis-tris-propane buffer, pH 6.8, containing SAM (200 μM) the methyl group of which is radioactively labeled with the carbon 14 isotope (2 Ci/mol), in the presence of 4-amino-L-phenylalanine (1 mM) for assaying methylation 1, or of 4-methylamino-L-alanine (2.5 mM) for assaying methylation 2.
(§2) The reaction is stopped by adding 16 μl of 37% hydrochloric acid and then 20 μl of sodium heptanesulfonate at 240 g/l. After centrifugation, 150 μl of supernatant are injected into the HPLC system in the following gradient mode: • Mobile phase: Eluent A=1.2 g of heptanesulfonate+2.5 ml of glacial acetic acid+water (qs 1 000 ml). Eluent B=1.2 g of sodium heptanesulfonate+2.5 ml of glacial acetic acid+300 ml of acetonitrile+water (qs 1 000 ml). The gradient is produced in the following way: at t=0, 30% of eluent B; t=16 (min), 30% of eluent B; t=17 (min), 100% of eluent B; t=20 min, 100% of eluent B; t=21 min, 30% of eluent B; t=25 (min), 30% of eluent B. • Stationary phase: Nucleosil® C 18 5 μm×4.6 mm column (Macherey-Nagel)
(§3) On leaving the column, the substrates and products of the enzyme reaction are quantified by absorption at 254 nm. This detection is coupled to an on-line radiochemical detection using a Berthold LB506 detector equipped with a solid scintillation cell of the GT400-U4 type. This makes it possible to specifically follow the incorporation of radioactive methyl groups into the reaction products.
(§4) The unit of enzyme activity for methylation 1 (and also for methylation 2) is defined as the amount of enzyme required to incorporate 1 nmol of methyl group into 4-amino-L-phenylalanine (or into 4-methylamino-L-phenylalanine).
(§5) The conditions for assaying the methylation activity are identical to those described in example 7-1, with the exception of the 2 mM concentration of SAM, the methyl group of which is radioactively labeled with the carbon 14 isotope (2 Ci/mol). Concentration ranges varying from 0.1 to 60 mM for each of the substrates 4-amino-L-phenylalanine for methylation 1 and 4-methylamino-L-phenylalanine for methylation 2 are prepared. For each concentration of each substrate, the reaction rate is measured and expressed in nmol converted per hour and per mg of proteins.
(§6) The values of the kinetics constants are deduced from the Michaelis-Menten curves plotted using the Enzfiter software.

[3] = Km and Vmax of purified PapM methylases, methylation 2; format: biochemical, S. pristinaespiralis; details: for Km2 / Vm2 / Vm2/Km2 (enzyme efficiency, methylation 2): Table 7; for Vm2 (MMPAPA) / Km2 (MMPAPA): purified enzyme, 2 mM SAM; for Km2 (MMPAPA): substrate 0.1 to 60 mM
Description: as §1, §2, §3, §4, §5, §6

[4] = Ratios of kinetic constants and enzyme efficiencies, methylation 1 / methylation 2; format: biochemical, S. pristinaespiralis; details: for Ratio Km2/Km1 / Ratio Vm1/Vm2: Table 5; for Vm1 · Km2 / Vm2 · Km1 (ratio of enzyme efficiencies): Table 7
Description: as §5, §6
For each mutant form of the enzyme, the enzyme efficiency of each methylation reaction (methylation 1 and methylation 2) was determined. This efficiency is defined by the ratio Vm1/Km1 (methylation 1) or Vm2/Km2 (methylation 2).
Then, for each form, the ratio of the enzyme efficiencies (methylation reaction 1/methylation reaction 2) was determined. This ratio is equal to Vm1.Km2/Vm2.Km1.

[5] = Competition assay between the two substrates; format: biochemical, S. pristinaespiralis; details: both substrates present: 1 mM 4-amino-L-phenylalanine, 2 mM 4-methylamino-L-phenylalanine, 2 mM SAM
Description: The ratio of the rates of conversion of the two competitive substrates is given by the formula: V1/V2=(Kcat1/Km1)[S1]/(Kcat2/Km2)[S2]
The amount of substrate and of enzyme brought into play is thus avoided by taking care not to convert not more than 2% of each of the substrates.
Using the same conditions for assaying the methylation activity as those described in example 7-1, with the exception of the concentration of SAM, which is 2 mM, and the methyl group of which is radioactively labeled with the carbon 14 isotope (2.5 Ci/mol), and with the simultaneous presence of the two substrates at the concentrations, for 4-amino-L-phenylalanine, of 1 mM and, for 4-methylamino-L-phenylalanine, of 2 mM, the rate of each of the reactions could thus be determined.
The assays were carried out simultaneously on the mutants described in examples 4 to 6, using the same substrate solutions.

[6] = Blanc et al., 1997, cited from earlier work
[7] = Blanc et al., 1997, cited from earlier work; remark: listed apart in the source

B1: 4-amino-L-phenylalanine (phenyl N)-methyltransferase (protein, UniProt P72542 1-292, looked up)
4-amino-L-phenylalanine/4-meth …: MTAAAPTLAQALDEATGQLTGAGITADAARADTRLLAAHACQVAPGDLDTCLAGPVPPRFWHYVRRRLTREPAERIVGHAYFMGHRFDLAPGVFVPKPETEEITRDAIARLEALVRRGTTAPLVVDLCAGPGTMAVTLARHVPAARVLGIELSQAAARAARRNARGTGARIVQGDARDAFPELSGTVDLVVTNPPYIPIGLRTSAPEVLEHDPPLALWAGEEGLGMIRAMERTAARLLAPGGVLLLEHGSYQLASVPALFRATGRWSHASSRPTCNDGCLTAVRNHTCAPPA
Ratio (r redetermined) [1]: 0.40
ratio of the two methylation activities (r) ([1]; after recloning of papM genes into pMTL23, E. coli DH5α, same experiment as wild-type): 0.40
ratio r=A1/(A1+A2) of MMPAPA and DMPAPA peak areas ([1]; screening of E. coli cultures, 1.5 mM L-PAPA, 3 mM L-MMPAPA): 0.50±0.05
Km1 [2]: 0.5
Vm1 [2]: 112 600
Vm1/Km1 (enzyme efficiency, methylation 1) [2]: 225 200
Vm1 (PAPA) [2]: 112 600 nmol/h/mg
Km1 (PAPA) [2]: 0.5 mM
Km2 [3]: 0.55
Vm2 [3]: 114 000
Vm2/Km2 (enzyme efficiency, methylation 2) [3]: 207 270
Vm2 (MMPAPA) [3]: 114 000 nmol/h/mg
Km2 (MMPAPA) [3]: 0.55 mM
ratio of the enzyme efficiencies (methylation reaction 1/methylation reaction 2), Vm1.Km2/Vm2.Km1 [4]: 1.1
Ratio Km2/Km1 [4]: 1.1
Ratio Vm1/Vm2 [4]: 0.99
Vm1 · Km2 / Vm2 · Km1 (ratio of enzyme efficiencies) [4]: 1.08
first methylation reaction relative to the second (selectivity) [5]: catalyzes the two reactions in a similar manner
maximum velocity (Vmax) for L-PAPA [6]: 55 μmol per hour and per mg of PapM
Km ([6]; read-out: Michaelis constant (Km) for L-PAPA): 240 µM
maximum velocity (Vmax) for L-MMPAPA [7]: 71 μmol per hour and per mg of PapM
Km ([7]; read-out: Michaelis constant (Km) for L-MMPAPA): 530 µM

B2: Mutant 74D4: PapM variant clone, Gly249 > Ser (same substitution as mutant 49) (protein, UniProt P72542 1-292, looked up, variant G249S)
4-amino-L-phenylalanine/4-meth …: B1 4-amino-L-phenylalanine/4-meth … with G249S
Ratio (r redetermined) [1]: 0.63

B3: Mutant 74D5: PapM variant clone, Met226 > Ile (same substitution as mutant 69) (protein, UniProt P72542 1-292, looked up, variant M226I)
4-amino-L-phenylalanine/4-meth …: B1 4-amino-L-phenylalanine/4-meth … with M226I
Ratio (r redetermined) [1]: 0.52

B4: Mutant 49/66: doubly mutated PapM, Thr192 > Ile and Gly249 > Ser, plasmids pVRC718 / pVRC721 (protein, UniProt P72542 1-292, looked up, variant T192I G249S)
4-amino-L-phenylalanine/4-meth …: B1 4-amino-L-phenylalanine/4-meth … with T192I, G249S
Km1 [2]: 9
Vm1 [2]: 28 000
Vm1/Km1 (enzyme efficiency, methylation 1) [2]: 3 110
Vm1 (PAPA) [2]: 28 000 nmol/h/mg
Km1 (PAPA) [2]: 9 mM
Km2 [3]: 22
Vm2 [3]: 9 100
Vm2/Km2 (enzyme efficiency, methylation 2) [3]: 410
Vm2 (MMPAPA) [3]: 9 100 nmol/h/mg
Km2 (MMPAPA) [3]: 22 mM
Ratio Km2/Km1 [4]: 2.5
Ratio Vm1/Vm2 [4]: 3.1
Vm1 · Km2 / Vm2 · Km1 (ratio of enzyme efficiencies) [4]: 7.58
first methylation reaction relative to the second (selectivity) [5]: 7 times

B5: Mutant 69: PapM variant Met226 > Ile (protein, UniProt P72542 1-292, looked up, variant M226I)
4-amino-L-phenylalanine/4-meth …: B1 4-amino-L-phenylalanine/4-meth … with M226I
Ratio (r redetermined) [1]: 0.51

B6: Mutant 45: PapM variant Thr274 > Ile (protein, UniProt P72542 1-292, looked up, variant T274I)
4-amino-L-phenylalanine/4-meth …: B1 4-amino-L-phenylalanine/4-meth … with T274I
Ratio (r redetermined) [1]: 0.52

B7: Mutant 52: PapM variant Gly249 > Asp (protein, UniProt P72542 1-292, looked up, variant G249D)
4-amino-L-phenylalanine/4-meth …: B1 4-amino-L-phenylalanine/4-meth … with G249D
Ratio (r redetermined) [1]: 0.66
